Reference: US20140356358A1 (Amgen, published 2014)

How the values were obtained:
[1] = target: T1, human neonatal Fc receptor (hFcRn) (human, UniProt P55899 24-290; P61769 21-119); assay: phage ELISA pH 7.4
T1 construct: Biotinylated in the ELISA, Octet and yeast assays; also called human FcRn; huFcRn

[2] = target: T1, human neonatal Fc receptor (hFcRn); assay: phage ELISA pH 6
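Also: higher score means stronger binding and above about 3 to 5 exceeds background.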

| ELISA score [1] | ELISA score [2] | Binder |
| --- | --- | --- |
| 0.3 | 21.7 | L5 isolate with insertion SEQ ID NO: 494 (other) EPKSCDKTHTCPPCPAPELLGGPSVFLFPPKPKDTLMISRTPEVTCVVVDVSHEDPEVKFNWYVDGVEVHNAKTKPREEQYNSTYRVVSVLTVLHQDWLNGKEYKCKVSNKALPAPIEKTISKAKGQPREPQVYTLPPSRDELTKNQVSLTCLVKGFYPSDIAVEWESNGGCCPVYQHCGGGQPENNYKTTPPVLDSDGSFFLYSKLTVDKSRWQQGNVFSCSVMHEALHNHYTQKSLSLSPGK |
| 0.5 | 51.2 | variant Fc-fragment Fc-5-66 (other, soluble elsewhere) EPKSCDKTHTCPPCPAPELLGGPSVFLFPPKPKDTLMISRTPEVTCVVVDVSHEDPEVKFNWYVDGVEVHNAKTKPREEQYNSTYRVVSVLTVLHQDWLNGKEYKCKVSNKALPAPIEKTISKAKGQPREPQVYTLPPSRDELTKNQVSLTCLVKGFYPSDIAVEWESNGGCERFHHACGGGQPENNYKTTPPVLDSDGSFFLYSKLTVDKSRWQQGNVFSCSVMHEALHNHYTQKSLSLSPGK |
| 1.4 | 21.3 | L5 isolate with insertion SEQ ID NO: 496 (other) EPKSCDKTHTCPPCPAPELLGGPSVFLFPPKPKDTLMISRTPEVTCVVVDVSHEDPEVKFNWYVDGVEVHNAKTKPREEQYNSTYRVVSVLTVLHQDWLNGKEYKCKVSNKALPAPIEKTISKAKGQPREPQVYTLPPSRDELTKNQVSLTCLVKGFYPSDIAVEWESNGGCGGPYVFCGGGQPENNYKTTPPVLDSDGSFFLYSKLTVDKSRWQQGNVFSCSVMHEALHNHYTQKSLSLSPGK |
| 1 | 21.5 | L5 isolate with insertion SEQ ID NO: 495 (other) EPKSCDKTHTCPPCPAPELLGGPSVFLFPPKPKDTLMISRTPEVTCVVVDVSHEDPEVKFNWYVDGVEVHNAKTKPREEQYNSTYRVVSVLTVLHQDWLNGKEYKCKVSNKALPAPIEKTISKAKGQPREPQVYTLPPSRDELTKNQVSLTCLVKGFYPSDIAVEWESNGGCLMSQDLCGGGQPENNYKTTPPVLDSDGSFFLYSKLTVDKSRWQQGNVFSCSVMHEALHNHYTQKSLSLSPGK |
| 0.7 | 79.5 | L6A isolate with insertion SEQ ID NO: 400 (other) EPKSCDKTHTCPPCPAPELLGGPSVFLFPPKPKDTLMISRTPEVTCVVVDVSHEDPEVKFNWYVDGVEVHNAKTKPREEQYNSTYRVVSVLTVLHQDWLNGKEYKCKVSNKALPAPIEKTISKAKGQPREPQVYTLPPSRDELGGCRAGYGDASCGGTKNQVSLTCLVKGFYPSDIAVEWESNGQPENNYKTTPPVLDSDGSFFLYSKLTVDKSRWQQGNVFSCSVMHEALHNHYTQKSLSLSPGK |
| 0.2 | 48.5 | L6A isolate with insertion SEQ ID NO: 458 (other) EPKSCDKTHTCPPCPAPELLGGPSVFLFPPKPKDTLMISRTPEVTCVVVDVSHEDPEVKFNWYVDGVEVHNAKTKPREEQYNSTYRVVSVLTVLHQDWLNGKEYKCKVSNKALPAPIEKTISKAKGQPREPQVYTLPPSRDELGGCNPVSTGAYCGGTKNQVSLTCLVKGFYPSDIAVEWESNGQPENNYKTTPPVLDSDGSFFLYSKLTVDKSRWQQGNVFSCSVMHEALHNHYTQKSLSLSPGK |
| 0.8 | 68.9 | L6B isolate with insertion SEQ ID NO: 410 (other) EPKSCDKTHTCPPCPAPELLGGPSVFLFPPKPKDTLMISRTPEVTCVVVDVSHEDPEVKFNWYVDGVEVHNAKTKPREEQYNSTYRVVSVLTVLHQDWLNGKEYKCKVSNKALPAPIEKTISKAKGQPREPQVYTLPPSRDELGGCLKGMHGSACGGTKNQVSLTCLVKGFYPSDIAVEWESNGQPENNYKTTPPVLDSDGSFFLYSKLTVDKSRWQQGNVFSCSVMHEALHNHYTQKSLSLSPGK |
| 0.6 | 43.8 | L6A isolate with insertion SEQ ID NO: 467 (other) EPKSCDKTHTCPPCPAPELLGGPSVFLFPPKPKDTLMISRTPEVTCVVVDVSHEDPEVKFNWYVDGVEVHNAKTKPREEQYNSTYRVVSVLTVLHQDWLNGKEYKCKVSNKALPAPIEKTISKAKGQPREPQVYTLPPSRDELGGCERHFPALFCGGTKNQVSLTCLVKGFYPSDIAVEWESNGQPENNYKTTPPVLDSDGSFFLYSKLTVDKSRWQQGNVFSCSVMHEALHNHYTQKSLSLSPGK |
| 0.4 | 50.1 | L6B isolate with insertion SEQ ID NO: 454 (other) EPKSCDKTHTCPPCPAPELLGGPSVFLFPPKPKDTLMISRTPEVTCVVVDVSHEDPEVKFNWYVDGVEVHNAKTKPREEQYNSTYRVVSVLTVLHQDWLNGKEYKCKVSNKALPAPIEKTISKAKGQPREPQVYTLPPSRDELGGCYGKAGMRDCGGTKNQVSLTCLVKGFYPSDIAVEWESNGQPENNYKTTPPVLDSDGSFFLYSKLTVDKSRWQQGNVFSCSVMHEALHNHYTQKSLSLSPGK |
| 0.8 | 58.9 | L6B isolate with insertion SEQ ID NO: 427 (other) EPKSCDKTHTCPPCPAPELLGGPSVFLFPPKPKDTLMISRTPEVTCVVVDVSHEDPEVKFNWYVDGVEVHNAKTKPREEQYNSTYRVVSVLTVLHQDWLNGKEYKCKVSNKALPAPIEKTISKAKGQPREPQVYTLPPSRDELGGCVQHKMGVVCGGTKNQVSLTCLVKGFYPSDIAVEWESNGQPENNYKTTPPVLDSDGSFFLYSKLTVDKSRWQQGNVFSCSVMHEALHNHYTQKSLSLSPGK |
| 0.2 | 44 | L6A isolate with insertion SEQ ID NO: 466 (other) EPKSCDKTHTCPPCPAPELLGGPSVFLFPPKPKDTLMISRTPEVTCVVVDVSHEDPEVKFNWYVDGVEVHNAKTKPREEQYNSTYRVVSVLTVLHQDWLNGKEYKCKVSNKALPAPIEKTISKAKGQPREPQVYTLPPSRDELGGCDRFQNVNVCGGTKNQVSLTCLVKGFYPSDIAVEWESNGQPENNYKTTPPVLDSDGSFFLYSKLTVDKSRWQQGNVFSCSVMHEALHNHYTQKSLSLSPGK |
| 0.6 | 54.9 | L6B isolate with insertion SEQ ID NO: 440 (other) EPKSCDKTHTCPPCPAPELLGGPSVFLFPPKPKDTLMISRTPEVTCVVVDVSHEDPEVKFNWYVDGVEVHNAKTKPREEQYNSTYRVVSVLTVLHQDWLNGKEYKCKVSNKALPAPIEKTISKAKGQPREPQVYTLPPSRDELGGCNATLSGYLCGGTKNQVSLTCLVKGFYPSDIAVEWESNGQPENNYKTTPPVLDSDGSFFLYSKLTVDKSRWQQGNVFSCSVMHEALHNHYTQKSLSLSPGK |
| 0.3 | 45.2 | L6A isolate with insertion SEQ ID NO: 465 (other) EPKSCDKTHTCPPCPAPELLGGPSVFLFPPKPKDTLMISRTPEVTCVVVDVSHEDPEVKFNWYVDGVEVHNAKTKPREEQYNSTYRVVSVLTVLHQDWLNGKEYKCKVSNKALPAPIEKTISKAKGQPREPQVYTLPPSRDELGGCFTNYASEKCGGTKNQVSLTCLVKGFYPSDIAVEWESNGQPENNYKTTPPVLDSDGSFFLYSKLTVDKSRWQQGNVFSCSVMHEALHNHYTQKSLSLSPGK |
| 0.2 | 41.2 | L6A isolate with insertion SEQ ID NO: 474 (other) EPKSCDKTHTCPPCPAPELLGGPSVFLFPPKPKDTLMISRTPEVTCVVVDVSHEDPEVKFNWYVDGVEVHNAKTKPREEQYNSTYRVVSVLTVLHQDWLNGKEYKCKVSNKALPAPIEKTISKAKGQPREPQVYTLPPSRDELGGCAKDQHTGSCGGTKNQVSLTCLVKGFYPSDIAVEWESNGQPENNYKTTPPVLDSDGSFFLYSKLTVDKSRWQQGNVFSCSVMHEALHNHYTQKSLSLSPGK |
